Source: article PMC5850324, “Interactions between the Hepatitis C Virus Nonstructural 2 Protein and Host Adaptor Proteins 1 and 4 Orchestrate Virus Release” (mBio, 2018)

B1: GLuc2-NS2 (hepatitis C virus nonstructural 2 protein, wild type) [hepatitis C virus (J6/JFH genome)] / GLuc1-tagged μ subunit of the AP-4 complex [not stated] (parent complex)
chain 1: YDASVHGQIGAALLVLITLFTLTPGYKTLLSRFLWWLCYLLTLAEAMVQEWAPPMQVRGGRDGIIWAVAIFCPGVVFDITKWLLAVLGPAYLLKGALTRVPYFVRAHALLRMCTMVRHLAGGRYVQMVLLALGRWTGTYIYDHLTPMSDWAANGLRDLAVAVEPIIFSPMEKKVIVWGAETAACGDILHGLPVSARLGREVLLGPADGYTSKGWSLL
chain 2: MISQFFILSSKGDPLIYKDFRGDSGGRDVAELFYRKLTGLPGDESPVVMHHHGRHFIHIRHSGLYLVVTTSENVSPFSLLELLSRLATLLGDYCGSLGEGTISRNVALVYELLDEVLDYGYVQTTSTEMLRNFIQTEAVVSKPFSLFDLSSVGLFGAETQQSKVAPSSAASRPVLSSRSDQSQKNEVFLDVVERLSVLIASNGSLLKVDVQGEIRLKSFLPSGSEMRIGLTEEFCVGKSELRGYGPGIRVDEVSFHSSVNLDEFESHRILRLQPPQGELTVMRYQLSDDLPSPLPFRLFPSVQWDRGSGRLQVYLKLRCDLLSKSQALNVRLHLPLPRGVVSLSQELSSPEQKAELAEGALRWDLPRVQGGSQLSGLFQMDVPGPPGPPSHGLSTSASPLGLGPASLSFELPRHTCSGLQVRFLRLAFRPCGNANPHKWVRHLSHSDAYVIRI

Variants of: B1
Assay: PCA (protein-fragment complementation assay); parent: 1; read off a plot

Variant	ratio to parent
chain 1 L203A	~0.62
chain 1 L216A	~0.56
chain 1 E200A	~1
chain 1 L217A	~0.52
chain 1 L202A	~0.57
chain 1 D207A	~0.6
